Measured values reported in the NTF2 design screens of Basanta et al. (2020).

Assay: protease stability score; higher = more stable; yeast display proteolysis, trypsin and chymotrypsin;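 note: relative to predicted unfolded state with 0 unfolded-like and 1 meaning tenfold more protease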

| Sequence | protease stability score |
| --- | --- |
| SEIEEFTRKLLEMFLEAFLTGDWKFLWELADPNVRLNVGDKHAHGMESSKHLLDEWLTEMRLRDMHVHSVHFQGEKRDNNGKEHRIYGDKVRLWDVHLHLVIVNGRLKEVNIEER | 1.31 |
| SEDKEADEIIIEKIMRALTTGDENLWKRLLDPNVRFEYDGVEMHGWEEIKKLLERIDHFHVDDHKIKDVRIIDGRIDNYGRLRGTIDINGREIHTILHVRILVLKIDGKWTVESEHSK | 1.43 |
| SEEEKLRKSLVELILHALHTGDWERLTRLLDPHVRWDQGDKVFHGREDFKRAWTELGVDHFQLRHIEMQGDKLHIKGEMHVNGRTIHVDLDIEIINGRIEHHRVDTK | 1.35 |
| DTEQKHVLHLLDEVLHNILTGDWDRIDELMDPNVRVIIGEWDHHGRSYFRELHHLLMLKLGVDHRHIKIQDKDAQGEYAVAHTHLELRIGDKRETYQTRLIVSVVNGKIEEIRIHIG | 0.877 |
| SDSEKVSREAWELMLRDHETGDEEAFQNNVDPHTRIHINGVDYHGWRDFVDLMRELRIEHVTLRDYRVIGNKMHIHGQVHGEIDGRRINMHVTIIARKINGRWILEHSIFV | 1.97 |
| DEEEDTARFLMELILHDLETGDEERLFRLMDPHTRLDIDGQQYHGRELVLQLHETLLERWGVERVEAFLRRTEIQGEKVLSDVHRHFNGVTVKTHIVLEKFNGRWSTKTLEYK | 0.6 |
| TEMEEWSRLAIEIWEEVVRTGNEHDMARLLDPNTRLIVGEKEYHGMETVMHLLERIKNLVLRRFHIEHVRLQGDKVEIDARSVHHVNGRDIETTLKIISFKFNGRWTIRQESII | 0.614 |
| DEDQEEMYKALNHLLTLLKTGDEHVLKRLIDPHVRVEIDGKDRHGMSFLLEIIKEELIRIDHIKDFRIHHVEMVGDKAENHVKLIGEWNGKEFRLRMHVYSWKFDGKWIMKSIKIE | 1.75 |
| SDEEELYEILLEIELKSAMTGDWRNLKDLLDPDTRIHFNGVEIHGREHAEKHLKRYDVDKIEDVRYRDMRFQGDKARVHGEVRILLQFDGRRMEIDTTIQVINYKVNGVWIIESLHFE | 1.24 |
| TEDHEDLRRFWEYFEEAFRTGDWKALSDLADPNVKIRIGDKLHVGRDDYYEFLRELIERVDHMELRLKRVHLVGDKLHVDSTLDLHVNGKRIHSRSRFTFTKVDGKWKVESVHYE | 1.61 |
| SETDELLRQLAEFHRETLETGDFHTLWHLLDPHVRLDYNGQKMHGREHFARFWLELLTELRIHFRVRDIRTQGNKAHNRGEIIIHYDGRLRIIDSEIEIIVVNGKVTEVRHTIN | 0.837 |
| DERDEAEKVLMKILLDNHHTGDEESLERLIDPNAKIIYGDKDYVGWELMIEWVRHARVHRVEIKDSRVQGDKVNLDGHEDGNINGKRRRTNVIVYLLKINGRWFFHSIQID | 2.17 |
| TEEEETARHMVHEFYEVIKTGDEETFRKLLDPNTKLHVNGKERHGREAIDEMYHRFKNVRIHVEHVDVVDGKIDLRENWIQGDKETIVRIEAHKVDGRWELRSVHIH | 1.36 |
| DDVERIVKHMLELHIQSWLTGNEHLMHRLADPNVRSHIGDKERVGRHELSEMMIKHWEHLRIHRVEIRDSDVVGEKAESNTHVVVIFNGVEVRFDVRIEVVSINGRLHSSHIIIE | -0.029 |
| SEEDELDERLLKIMRHAFETGDEEIFMRLVDPHTRTEFNGQEVHGREHLHRWLKEILRTLGVKYVERKDIRAWDGRIHLEFEMHVNGRTLKLTVVVIFINGKLHEYSERIE | 1.61 |
| DREEKQAEEVATEIIRALLTGDEKWLLHLIDPNVRWIMDVNGKELTLHGWHELIKKFRDDFRHLGVERFHVHVKDWDIQGDKMHLRVTFHIDGKTFDYELIIIVINGRITSMEVREH | 2 |
| SEEEHEQENWARLMLHLFLTGDEEILLELFDPNVRSDVDGRKFHGRDEVSHAIRWILEHFGFKHSHVRHFEIYNGRVHSEVEINVDGVRLTLHIHLNIYNGRLKDSEFRLK | 0.967 |
| SETHKHWEEVARIIIKALETGDFRLFHKLLDPNARLHHDIGDKRVNNVGREEVVRTLKMWIDRFPNVTIELKDMRVIDGVVHHDESLNINGVTVRVHIEIIVFDGKLEEMRIEYR | 1.23 |
| SEEERDAKEAVHLLLDMIDTGDFERITKYMDPNTRSRVGDKNDHGRHWLRHRRRHAGHDNIHVHLTRVDIFDGVVQINGRLDVDGKEIEVHWFIRKINGRWIVEEVHIQ | 0.367 |
| SEEHEDAEKWIRILLRDLKTGDEESLFQLLDPHTKLEVGDKHFHGREQVMRYVLHELKRVDHMEVELKHHHIQGEKAHLDIEVHNIFDGRVFVKHVHIDSKKINGRWRQEKIYIE | 1.33 |
| DEDEHKYRRAAEEFFKILRTGDEDLWKRYADPTPILLLLVGDKIDEYHGMEEVMRVLHEEWRRLGVDHMHVKRVDLQGEKVEMDFTRHIGDKTIRITIIVVVIDGRMKSVEIRTH | 0.8 |
| DEEKHELEERVRLHIERWKTGDEDTLRHYADPDVRTHIDVGDKKFNYHGREEIVQAYKHLLDQLGVKHSEIDRSTAVNGVVHLHMTLRFDGVRMEWRIDIWIIDGRTKTIHIEIRHR | 0.942 |
| VETEERLHDIVHSIIRLDETGDEQDFDRLVDPNAKFDIDGKELHGRDNFRHMWARYRRELGVDHIQFKHVFIQGDKIHQERRVTIGDKTYNMHVDLVVIDGRIQHVRYRIR | 1.56 |
| DEDEHYAREAVHLVYEILHTGDEHELMKYADPDTRIDIGDKTHIGRDRVVEAIHKMHKKLGVDHEVLTDSKVHWQGNKIEIYLKIEIHVGDKRFEMDIIIHLEKINGRWRVKSMRIDFR | 1.33 |
| SEDRENIYRQIREVEEALKTGDEELMLHLMDPHVRIDINGRHNHGREEMVRFIREIRISLKHVDIHHVQDDENELIVHVRVNLVIEVDGKRREEEDNALFIFVKIDGRWVFSIIRIQ | 1.76 |

| Sequence | protease stability score |
| --- | --- |
| DELDRLAEDWVKIIIHSLKTGDEDTLHKMADPNYQVEIGDFRFHGRERWIHVLREHREELGVTRVHSELHELHTFNGRAVSVVDLHVNGVTLHVIVFVRKVNGRWQDTSQVYKYE | 0.491 |
| SEEHEIIERMMRLFLNYYFTGDEESIQKNADPDVKLNINGRDIHGRERIAEHLFDEIKHLRWHHLHIHSFIVQGEKARVDTRFDGEVDGVRTIFETEIILVVVNGRMKSIEVHRR | 1.28 |
| DDKDELTRTALEIFEYLEITGDWHVVSREADPHVRIVIGDKHLHGMEIFMDLTEELGVDHSSVHSLRSQGDKIDIDIELHQGEKSFRTKVTAEKVDGRWLIKRVLFR | 1.3 |
| DDSSELLRKLLEELLRAYKTGDFDTLIEFFDPDVKLEFNGREVHGMDHFISEHRHFIRRFPGIRIHIDDVKWHTQGDKAQLHMDGTEDFDGKRRRVELIFIIEKFDGRWFFSSIRWHNI | 1.53 |
| DHEDERETWAYHMLIHAFRTGDERIHEELLDPNVRTDVDGRTSHGWENVVKLVHHVLRLLGIDHIRLRRSDVVDGRVYMQGDIRVNGRTIETRVTIQVINGRVHSWSVRAE | 1.6 |
| SEEEELATEIFRKWIELLETGDEHTFRELADPDYRLIILYGDFIINDIGRERAIERWKQHLKQFDHWEIIIDRERVVNGVVHVDGILVLRINGREHNRRVKIELFIFDGRMKEVDIHID | 2.6 |
| DDLEKWYEDIARLYHHNLLTGDEDVIHELLDPNVRLVVGDKHFHGRESVIEFLKRELTEIRIEDIKIKEVHWVGDFSINRGTLHIRINGVLFDVRSEVIFDVINGKIRRVTRIII | 1.6 |
| DEEEERARHWIERFVRAVLTGDWEHILRNADPNVRLHVGDKEIHGRERMIETFREFWERYPGVRIKIHQVEIQGEKSHLDGEIRFDGRRFRVEFEVVIINGKIHELHIRIH | 2.62 |
| SEDEHDARLAIRLLLEALRTGDERIMEELLDPNVRFDINGKEFHGRKYVSEWLHRVDHIESRFELRDVHLFDGRIEVRGILRLHIDVNGKIDDQEKDIVLFVNKVDGRWIVHSWEIH | 1.33 |
| DEDEEEMRRVVELLVRDHFTGNFEKLKDLFDPNAKSDVDGVSMVGREWLEFLKRYLGADHIEVRVRHEDYYGNKVHFHLEIISRYGDKEIHVDTEMVIDKVDGRWYVRETRFK | 0.854 |
| EEHHEITKDLIELLERTMKTGDEDILRKMADPHTKVEQGDKRIIGRDEFQEEWVEWMRRVDHAEVRLTDFREFPNHLELHGTLDVNINGRDIRIEIQIIVSKFDGRWSLHSISFR | 0.107 |
| SDEIEEVKTFVRLFTKDLETGNEEDLKRLADPNTRLDVNGREIHGWKSMEHRYRELMEKYKNLRIEVKIDDIRVQGDKIHIHTTIKLDYDGVDIELSSWLVIHKINGRWFVRSIEME | 0.605 |
| DDHEKRLEEYMKHWFENLMTGNEERLHELADPNARFHLHFENHEVDLIGREDIIKWWREFLHRVKNIRHHLDHLEIQGEKSHLDMTLNIDGKEYRVRIIVVIVNGKIHKVIVDIR | 2.23 |
| SEEEHIVKEAVRLWYEAVHTGDPHTLNEFLDPHMRIEIGDKEKHGRHELKKLTEHIRIERLEFTLTHMKIVGNKAHVYGHLRFEGDWDGQRIHTEVETRLHIIKYDGKWMTEEVHIR | 1.97 |
| DELEHWAHIILEEFTRLYTTGDEETFNHLADPDTRLFFNGREFIGREKFIDAWRHLRYKEIRLRDHQVDVQGDKMRMILHMRVNSNINGREVEQDVHLEILTKKIDGRWRLKEVHFQTH | 2.39 |
| HEIDEWSEEWKHELIHNLRTGDEHRLKELADPHTRIIIDGREIHGMDFALKLIHKRVMEMRHKEFHIRRIDHQGEKIVMDVEVRVNFNGREDSVNFRIISEKFNGRWIIHYITLI | 1.49 |
| TEEEEELHKILERMIKHLVTGDEEAILKLADPDVRVHRIIDGRELDIVGRENLRHWLHELLRQLGVDHIDVKSVTLQGDKIHMTGTMKWNGKTEETRIIFEVVNGRLKRMEFHEI | 0.982 |
| DESEEDVEYFVKILDRAWATGDEDTLRRLLDPHYRVHVDGKDIIGREEVVRLFKEMGWELRFHRDHIHVQGDKMFIHGTLRLIYNGRIEEREIHLDVNKINGRWLNERVEIR | 1.81 |
| DDLERLVRELLDLWKRALKTGDEDVLSKMFDPDVRLTINGQVSVGREDVLRLWQEWRVDRMEERDVTVQGDKIHMDGHSHVEYDGRRIEVRHEIILVIVNGRAKSQEVRIR | 1.62 |
| DEEDELMKEYFELFWRDLLTGNEELLENLVDPHVRVKVGDKEFHGRHLLSKLASDMGVDHIQIEDMRVQGDKLSIDTTVDVNGKRRRMTLRARKVNGRWFFTELEVR | 1.5 |
| SKDEKTLSHFIKFLEDVEKTGNFEDFYELMDPDAKLVVNGVEHHGRDEFTRFIKEFMDRVDHIHYTDVHHIILQGDKVIIDAKVRGVWDGVERELRVKIIIVKINGRWYLKSFEEE | 1.87 |
| DEDEEMSKLLLEVSERVIETGDEHLWTRLLDPNVRIHLIIGDKTIELIGRERAHELLHHILERYKNATLRLRSVEIQGDKVIVESELNVGDKRIKQIYIWTKINGQWVLEEVNIEVR | 1.44 |
| DHEENMLKLMVTLWTQSLRTGDEDTLFRLMDPHARDVVGDKEFHGREEVKHHLRELLLEIRIEDSHVEDFRVYDGVAEIDTRQHGIFNGKRLEYETRILVLKVNGRWIFTHVERR | 0.592 |
| DEIEKESERVMEKYFEDFITGDWETMWRQVDPHVKFRIGDKHFHGREQATRVYKEFLDELGVKVRRIHDFEFTLFDGRAYVHLDSTLRVNGRDHRLHITIIVEKINGRWRLHEFELRLH | 0.367 |
| DETEDEMHKVLKLWIEAYRTGDEELLEELFDPHVRLDINGKDFHGREAFTRQVRHEMKHLRYEDFHIDTVEVQGEKAFVHGRIVGKFDGRRRHMHSHLIILKINGRWHVESLHFK | 1.26 |
